Key:
[1] = target: CLEC-2 C-type lectin-like domain (Homo sapiens) (UniProt Q9P126); test: SPR; details: cited from earlier work
[2] = target: CLEC-2 C-type lectin-like domain (Mus musculus) (UniProt Q9JL99); test: SPR; details: cited from earlier work
[3] = target: the molecule itself; test: divalent nanobody Nb2-2 (100 nM)

CLEC-2 C-type lectin-like domain (Mus musculus), sequence (Q9JL99 109-217): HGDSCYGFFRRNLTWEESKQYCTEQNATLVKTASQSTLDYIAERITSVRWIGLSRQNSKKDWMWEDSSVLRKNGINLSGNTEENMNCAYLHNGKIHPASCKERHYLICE
CLEC-2 C-type lectin-like domain (Homo sapiens), sequence (Q9P126 109-217): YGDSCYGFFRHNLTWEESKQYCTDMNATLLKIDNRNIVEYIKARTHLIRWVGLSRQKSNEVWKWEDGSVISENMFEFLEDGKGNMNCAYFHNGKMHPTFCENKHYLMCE

Molecule: CLEC-2 C-type lectin-like domain (from UniProt Q9P126)
- Kd [1]: 278 nM

Molecule: CLEC-2 C-type lectin-like domain (from UniProt Q9JL99)
- Kd [2]: 499 nM

B1: SNAP-tag-GPVI and HaloTag-GPVI coexpressed on CHO-K1 cells (receptor)
chain: QSGPLPKPSLQALPSSLVPLEKPVTLRCQGPPGVDLYRLEKLSSSRYQDQAVLFIPAMKRSLAGRYRCSYQNGSLWSLPSDQLELVATGVFAKPSLSAQPGPAVSSGGDVTLQCQTRYGFDQFALYKEGDPAPYKNPERWYRASFPIITVTAAHSGTYRCYSFSSRDPYLWSAPSDPLELVVTGTSVTPSRLPTEPPSPVAEFSEATAELTVSFTNEVFTTETSRSITASPKESDSPAGPARQYYTKGNLVRICLGAVILIILAGFLAEDWHSRRKRLRHRGRAVQRPLPPLPPLPLTRKSNGGQDGGRQDVHSRGLCS
modifications: SNAP-tag labeled with SNAP-Surface Alexa Fluor-647; HaloTag labeled with Janelia Fluor-549
- koff [3]: 0.95 s⁻¹
